Assay [1] deals with recombinant human calcitonin receptor (hCT-R) (human), P30988. As to the kind of experiment: cell-based or functional assay.
Assay [2] deals with recombinant human amylin 3 receptor (hAMYR3) (human), P30988. As to the kind of experiment: cell-based or functional assay.

Numbered stars: 1 amine (or outer) side, 2 acyl side, 3 side chain; on linkers, the order of the positions; unused ones are H or OH. Bridge positions count the residues as written; N and C are the ends. Square brackets hold non-standard residues; d marks the D form. * marks the point of attachment. C20 diacid = O=C(O)CCCCCCCCCCCCCCCCCCC(=O)*; γGlu = O=C(O)[C@H](CCC(=O)[*:2])N[*:1]; Hyp = O=C(O)[C@@H]1C[C@@H](O)CN1; NMeI = CC[C@H](C)[C@H](NC)C(=O)O; Dab = NCC[C@H](N)C(=O)O; Dap = NC[C@H](N)C(=O)O; Sar = CNCC(=O)O

Sequence of recombinant human calcitonin receptor (hCT-R) (human), P30988 (P30988 25-474): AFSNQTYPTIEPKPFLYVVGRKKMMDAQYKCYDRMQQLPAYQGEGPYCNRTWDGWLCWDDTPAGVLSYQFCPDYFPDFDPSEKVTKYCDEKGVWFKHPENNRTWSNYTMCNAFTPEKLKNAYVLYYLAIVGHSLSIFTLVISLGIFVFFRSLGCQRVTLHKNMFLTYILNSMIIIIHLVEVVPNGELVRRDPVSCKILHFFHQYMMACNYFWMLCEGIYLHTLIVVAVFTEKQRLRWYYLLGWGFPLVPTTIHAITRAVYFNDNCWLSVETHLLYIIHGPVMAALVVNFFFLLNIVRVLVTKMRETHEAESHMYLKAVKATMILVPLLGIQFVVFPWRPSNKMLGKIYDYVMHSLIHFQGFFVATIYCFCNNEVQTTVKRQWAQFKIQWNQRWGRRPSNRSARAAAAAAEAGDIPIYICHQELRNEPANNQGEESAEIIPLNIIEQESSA
Sequence of recombinant human amylin 3 receptor (hAMYR3) (human), P30988 (P30988 25-474, chain 1 of 2): as the sequence (P30988 25-474) above
Sequence of recombinant human amylin 3 receptor (hAMYR3) (human), P30988 (O60896 24-148, chain 2 of 2, further chain): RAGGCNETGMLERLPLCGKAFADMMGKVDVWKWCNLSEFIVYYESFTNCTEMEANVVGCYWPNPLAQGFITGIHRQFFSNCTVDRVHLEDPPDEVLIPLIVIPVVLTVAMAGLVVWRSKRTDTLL

B1: Compound 42 (peptide)
peptide: {C20 diacid-γGlu}-RDGTATKATQRLADFLQRSSF[Sar]A[NMeI]LSSTETGSNT[Hyp]-NH2
modifications: lactam 2-7
SMILES: CC[C@H](C)[C@@H](C(=O)N[C@@H](CC(C)C)C(=O)N[C@@H](CO)C(=O)N[C@@H](CO)C(=O)N[C@H](C(=O)N[C@@H](CCC(=O)O)C(=O)N[C@H](C(=O)NCC(=O)N[C@@H](CO)C(=O)N[C@@H](CC(N)=O)C(=O)N[C@H](C(=O)N1C[C@H](O)C[C@H]1C(N)=O)[C@@H](C)O)[C@@H](C)O)[C@@H](C)O)N(C)C(=O)[C@H](C)NC(=O)CN(C)C(=O)[C@H](Cc1ccccc1)NC(=O)[C@H](CO)NC(=O)[C@H](CO)NC(=O)[C@H](CCCNC(=N)N)NC(=O)[C@H](CCC(N)=O)NC(=O)[C@H](CC(C)C)NC(=O)[C@H](Cc1ccccc1)NC(=O)[C@H](CC(=O)O)NC(=O)[C@H](C)NC(=O)[C@H](CC(C)C)NC(=O)[C@H](CCCNC(=N)N)NC(=O)[C@H](CCC(N)=O)NC(=O)[C@@H](NC(=O)[C@H](C)NC(=O)[C@@H]1CCCCNC(=O)C[C@H](NC(=O)[C@H](CCCNC(=N)N)NC(=O)CC[C@H](NC(=O)CCCCCCCCCCCCCCCCCCC(=O)O)C(=O)O)C(=O)NCC(=O)N[C@@H]([C@@H](C)O)C(=O)N[C@@H](C)C(=O)N[C@@H]([C@@H](C)O)C(=O)N1)[C@@H](C)O
As for B1, the hCT-R EC50 [nM] (cAMP formation, 1321N1 cells expressing hCT-R) in assay [1] was found to be 0.006 nM. Also, in assay [2], the hAMYR3 EC50 [nM] (cAMP formation, 1321N1 cells expressing hAMYR3) came to 0.003 nM.

B2: Compound 44 (peptide)
peptide: {C20 diacid-γGlu}-KDGTATKATQRLANFLQRSSF[Sar]A[NMeI]LSSTETGSNT[Hyp]-NH2
modifications: lactam 2-7
SMILES: CC[C@H](C)[C@@H](C(=O)N[C@@H](CC(C)C)C(=O)N[C@@H](CO)C(=O)N[C@@H](CO)C(=O)N[C@H](C(=O)N[C@@H](CCC(=O)O)C(=O)N[C@H](C(=O)NCC(=O)N[C@@H](CO)C(=O)N[C@@H](CC(N)=O)C(=O)N[C@H](C(=O)N1C[C@H](O)C[C@H]1C(N)=O)[C@@H](C)O)[C@@H](C)O)[C@@H](C)O)N(C)C(=O)[C@H](C)NC(=O)CN(C)C(=O)[C@H](Cc1ccccc1)NC(=O)[C@H](CO)NC(=O)[C@H](CO)NC(=O)[C@H](CCCNC(=N)N)NC(=O)[C@H](CCC(N)=O)NC(=O)[C@H](CC(C)C)NC(=O)[C@H](Cc1ccccc1)NC(=O)[C@H](CC(N)=O)NC(=O)[C@H](C)NC(=O)[C@H](CC(C)C)NC(=O)[C@H](CCCNC(=N)N)NC(=O)[C@H](CCC(N)=O)NC(=O)[C@@H](NC(=O)[C@H](C)NC(=O)[C@@H]1CCCCNC(=O)C[C@H](NC(=O)[C@H](CCCCN)NC(=O)CC[C@H](NC(=O)CCCCCCCCCCCCCCCCCCC(=O)O)C(=O)O)C(=O)NCC(=O)N[C@@H]([C@@H](C)O)C(=O)N[C@@H](C)C(=O)N[C@@H]([C@@H](C)O)C(=O)N1)[C@@H](C)O
For the molecule B2, the hCT-R EC50 [nM] (cAMP formation, 1321N1 cells expressing hCT-R) in assay [1] came out at 0.02 nM. Moreover, the hAMYR3 EC50 [nM] (cAMP formation, 1321N1 cells expressing hAMYR3) in assay [2] is 0.009 nM.

B3: Compound 43 (peptide)
peptide: {C20 diacid-γGlu}-KDGTATKATQRLANFLQRSSF[Sar]A[NMeI]LSSTEVGSNT[Hyp]-NH2
modifications: lactam 2-7
SMILES: CC[C@H](C)[C@@H](C(=O)N[C@@H](CC(C)C)C(=O)N[C@@H](CO)C(=O)N[C@@H](CO)C(=O)N[C@H](C(=O)N[C@@H](CCC(=O)O)C(=O)N[C@H](C(=O)NCC(=O)N[C@@H](CO)C(=O)N[C@@H](CC(N)=O)C(=O)N[C@H](C(=O)N1C[C@H](O)C[C@H]1C(N)=O)[C@@H](C)O)C(C)C)[C@@H](C)O)N(C)C(=O)[C@H](C)NC(=O)CN(C)C(=O)[C@H](Cc1ccccc1)NC(=O)[C@H](CO)NC(=O)[C@H](CO)NC(=O)[C@H](CCCNC(=N)N)NC(=O)[C@H](CCC(N)=O)NC(=O)[C@H](CC(C)C)NC(=O)[C@H](Cc1ccccc1)NC(=O)[C@H](CC(N)=O)NC(=O)[C@H](C)NC(=O)[C@H](CC(C)C)NC(=O)[C@H](CCCNC(=N)N)NC(=O)[C@H](CCC(N)=O)NC(=O)[C@@H](NC(=O)[C@H](C)NC(=O)[C@@H]1CCCCNC(=O)C[C@H](NC(=O)[C@H](CCCCN)NC(=O)CC[C@H](NC(=O)CCCCCCCCCCCCCCCCCCC(=O)O)C(=O)O)C(=O)NCC(=O)N[C@@H]([C@@H](C)O)C(=O)N[C@@H](C)C(=O)N[C@@H]([C@@H](C)O)C(=O)N1)[C@@H](C)O
Consider B3, for which the hCT-R EC50 [nM] (cAMP formation, 1321N1 cells expressing hCT-R) in assay [1] is 0.021 nM. Moreover, the hAMYR3 EC50 [nM] (cAMP formation, 1321N1 cells expressing hAMYR3) in assay [2] is 0.007 nM.

B4: Compound 45 (peptide)
peptide: {C20 diacid-γGlu}-R[Dap]GTATDATERLAHFLQRSSF[Sar]A[NMeI]LSSTEVGSNT[Hyp]-NH2
modifications: lactam 2-7
SMILES: CC[C@H](C)[C@@H](C(=O)N[C@@H](CC(C)C)C(=O)N[C@@H](CO)C(=O)N[C@@H](CO)C(=O)N[C@H](C(=O)N[C@@H](CCC(=O)O)C(=O)N[C@H](C(=O)NCC(=O)N[C@@H](CO)C(=O)N[C@@H](CC(N)=O)C(=O)N[C@H](C(=O)N1C[C@H](O)C[C@H]1C(N)=O)[C@@H](C)O)C(C)C)[C@@H](C)O)N(C)C(=O)[C@H](C)NC(=O)CN(C)C(=O)[C@H](Cc1ccccc1)NC(=O)[C@H](CO)NC(=O)[C@H](CO)NC(=O)[C@H](CCCNC(=N)N)NC(=O)[C@H](CCC(N)=O)NC(=O)[C@H](CC(C)C)NC(=O)[C@H](Cc1ccccc1)NC(=O)[C@H](Cc1c[nH]cn1)NC(=O)[C@H](C)NC(=O)[C@H](CC(C)C)NC(=O)[C@H](CCCNC(=N)N)NC(=O)[C@H](CCC(=O)O)NC(=O)[C@@H](NC(=O)[C@H](C)NC(=O)[C@@H]1CC(=O)NC[C@H](NC(=O)[C@H](CCCNC(=N)N)NC(=O)CC[C@H](NC(=O)CCCCCCCCCCCCCCCCCCC(=O)O)C(=O)O)C(=O)NCC(=O)N[C@@H]([C@@H](C)O)C(=O)N[C@@H](C)C(=O)N[C@@H]([C@@H](C)O)C(=O)N1)[C@@H](C)O
B4: in assay [1], the hCT-R EC50 [nM] (cAMP formation, 1321N1 cells expressing hCT-R) was 299 nM. Further, in assay [2], the hAMYR3 EC50 [nM] (cAMP formation, 1321N1 cells expressing hAMYR3) came out at 279 nM.

B5: Compound 46 (peptide)
peptide: {C20 diacid-γGlu}-R[Dab]GTATDATERLAHFLQRSSF[Sar]A[NMeI]LSSTEVGSNT[Hyp]-NH2
modifications: lactam 2-7
SMILES: CC[C@H](C)[C@@H](C(=O)N[C@@H](CC(C)C)C(=O)N[C@@H](CO)C(=O)N[C@@H](CO)C(=O)N[C@H](C(=O)N[C@@H](CCC(=O)O)C(=O)N[C@H](C(=O)NCC(=O)N[C@@H](CO)C(=O)N[C@@H](CC(N)=O)C(=O)N[C@H](C(=O)N1C[C@H](O)C[C@H]1C(N)=O)[C@@H](C)O)C(C)C)[C@@H](C)O)N(C)C(=O)[C@H](C)NC(=O)CN(C)C(=O)[C@H](Cc1ccccc1)NC(=O)[C@H](CO)NC(=O)[C@H](CO)NC(=O)[C@H](CCCNC(=N)N)NC(=O)[C@H](CCC(N)=O)NC(=O)[C@H](CC(C)C)NC(=O)[C@H](Cc1ccccc1)NC(=O)[C@H](Cc1c[nH]cn1)NC(=O)[C@H](C)NC(=O)[C@H](CC(C)C)NC(=O)[C@H](CCCNC(=N)N)NC(=O)[C@H](CCC(=O)O)NC(=O)[C@@H](NC(=O)[C@H](C)NC(=O)[C@@H]1CC(=O)NCC[C@H](NC(=O)[C@H](CCCNC(=N)N)NC(=O)CC[C@H](NC(=O)CCCCCCCCCCCCCCCCCCC(=O)O)C(=O)O)C(=O)NCC(=O)N[C@@H]([C@@H](C)O)C(=O)N[C@@H](C)C(=O)N[C@@H]([C@@H](C)O)C(=O)N1)[C@@H](C)O
For B5, the hCT-R EC50 [nM] (cAMP formation, 1321N1 cells expressing hCT-R) in assay [1] stood at 7.5 nM. Moreover, the hAMYR3 EC50 [nM] (cAMP formation, 1321N1 cells expressing hAMYR3) in assay [2] was 5.5 nM.

The values above are taken from US20180071366A1.
